According to US20220073643A1 (NANJING GENSCRIPT BIOTECH, published 2022):
Like-named read-outs stand apart in the source and are kept apart here.

Experiments:
human Claudin18.2 [1] = target: human Claudin18.2 (human); experiment: cell-based or functional assay
human Claudin18.2 [2] = target: human Claudin18.2 (human); experiment: cell-based or functional assay; remark: listed apart in the source
human Claudin18.2 [3] = target: T1, human Claudin18.2 (human); experiment: FACS, Claudin18.2-HEK293 cells
T1 construct: also called CLDN18.2
Procedure: (§1) The binding of chimeric antibodies to Claudin18.2 expressed on HEK293 cells was determine by FACS analysis. Briefly, HEK293 cells expressing human Claudin18.2 as prepared in the foregoing Example were harvested and incubated with anti-Claudin18.2 mAbs at 4° C. for 40 min, followed by fluorophore (iFluor 647)-labeled goat […] IgG (H+L) secondary antibodies at 4° C. for 0.5 hour. The samples were then analyzed by flow cytometry.

human Claudin18.2 [4] = target: T1, human Claudin18.2; experiment: FACS, Claudin18.2-HEK293 cells; remark: listed apart in the source
Procedure: as §1
After initial screening of cell binding with transfected supernatants, the binding pattern of chimeric and up to 3 humanized antibodies on Claudin18.2 expressed on HEK293 cells were plotted with antibody in 3× serial dilutions, starting concentration of 45 μg/ml, following the protocol described in Example 3.

Binder	CDC % Relative activity (human Claudin18.2 [1])	CDC EC50 (human Claudin18.2 [1])	ADCC % Relative activity (human Claudin18.2 [2])	ADCC EC50 (human Claudin18.2 [2])	EC50 (human Claudin18.2 [3])	EC50 (human Claudin18.2 [4])	Span (human Claudin18.2 [4])
chimeric 194D3B2 (antibody, human IgG1, kappa, V domains shown, chimeric, human IgG1/kappa constant regions) VH: QAYLQQSGAELVRSGASVKMSCKASGYPFTSYNMHWVKQTPGQGLEWVGYIYPGNGGTNYNQKFRDKATLTADTSSSTAYMQISRLTSDDSAVYFCLTGRGFAYWGQGTLVTVSA VL: DIVMTQSPSSLIVTPGERVTMSCKSSQSLLNSGNQKNYLTWYQQKPGQPPKLLIYRASTRESGVPDRFTGSGSGTDFTLTISSVQAEDLAVYYCQNDYSYPLTFGIGTKLELKR	793%	0.34 µg/mL	83.6%	0.0291 µg/mL	0.796 nM		
chimeric 203A6C9 (antibody, human IgG1, kappa, V domains shown, chimeric, human IgG1/kappa constant regions) VH: QVQLKQSGPGLVQPSQSLSITCTVSGFSLTRYGVHWVRQSPGKGLEWLGVIWSGGNTDYNAAFISRLNIRKDNSKSQVFFKMNSLKPNDTAIYYCARAAYFGNSFDYWGQGTTLTVSS VL: DIVMTQSPSSLPVTAGEKVTMSCKSSQSLLNSGNQKNYLTWYQQKPGQPPKLLIYWASTRDSGVPDRFTGSGSGTDFTLTISSVQAEDLAVYYCQNNYIYPLTFGAGTKLELKR	1040%	0.261 µg/mL	66.4%	0.0367 µg/mL	0.551 nM		
chimeric 252F1B10 (antibody, human IgG1, kappa, V domains shown, chimeric, human IgG1/kappa constant regions) VH: QAYLQQSGAELVRSGASVKMSCKASGYTFTSHNMHWVKQTPGQGLEWIGYIYPGNGGTNYNQKFKGKATLTADTSSSTAYMQINSLTSEDSAVYFCTRDYYGNSFAYWGQGTLVTVSA VL: DIVMTQSPSSLTEKAGERVSMSCKSSQSLFNSGNQKNYLTWYQQKPGQPPKLLIYWASTRESGVPDRFTGSGSGTDFTLTISSVQAEDLAVYYCQNDYRYPFTFGAGTKLELKR	937%	0.288 µg/mL	85.9%	0.0357 µg/mL	0.798 nM		
chimeric 234B9D4 (antibody, human IgG1, kappa, V domains shown, chimeric, human IgG1/kappa constant regions) VH: EIQLQQSGPDLMKPGSSVKISCTASGYSFTSYYIHWVKQSHGKTLEWIGYIDPFNGGTRYNQKFEGKAALTVDKSSTTAYMHLTSLTSDDSAVYYCASLRFFTYWGQGTLVTVSA VL: DIVMTQSPSSLTVTAGEKVTMTCKSSQSLLNSGNQENYLTWYQQKPGQPPKLLISRASTRQSGVPDRFTGSGSGTDFTLTISSVQAEDLAVYYCQNDYSYPLTFGAGTKLELKR					2.6 nM		
chimeric 182D10F1 (antibody, human IgG1, kappa, V domains shown, chimeric, human IgG1/kappa constant regions) VH: QAYLQQSGAELVRSGASVKMSCKASGYTFSSYNMHWVKQTPGQGLEWIGYIYPGNGGTNYNQKFKGKATLTADTSSSTAYMQISSLTSEDSAVYFCLTGRGFTYWGQGTLVTVSA VL: DIVMTQSPSSLTVTAGEKVTMNCKSSQSLFNSGNQKNYLTWYQQKPGQPPKLLIYRASTRESGVPDRFTGSGSGTDFTLTISSVQAEDLAVYYCQNDYSYPLTFGVGTKLELKR					1.3 nM		
chimeric 222B6G5 (antibody, human IgG1, kappa, V domains shown, chimeric, human IgG1/kappa constant regions) VH: QTYLQQSGAELVRSGASVKMSCKASGYTFTSYNIHWVKQTPGQGLEWIGYISPGNGGTYYNLKFKDKATLTTATSSSTAYMQISSLTSEDSAVYFCATGRGFAYWGQGTLVTVSA VL: DIVMTQSPSSLTVTPGEKVTMSCKSSQSLFNSGNQKNYLIWYQQKPGQPPKLLIYRASTRDSGVPDRFTGSGSGTDFTLTISNVQAEDLAVYYCQNDYSYPLTFGAGTKLELKR	1320%	0.205 µg/mL	131%	0.0276 µg/mL	0.61 nM		
chimeric 241H10A1 (antibody, human IgG1, kappa, V domains shown, chimeric, human IgG1/kappa constant regions) VH: QVQLQQSGAELVKPGASVKLSCKASGYTFTSFGINWLRQRPEQGLEWIGWIFPGDGNSKYNENFKGKATLTTDKSSSTAYMQVTRLTSEDSAVYFCARFYYGNSFANWGQGTLVTVSA VL: DIVMTQSPSSLTVTAGEKVTMSCKSSQSLLNSGNQKNYLTWYQQKPGQPPKLLIYWAATRESGVPDRFTGSGSGTDFTLTISSVQAEDLAVYYCQNDYFYPFTFGGGTKLELKR					1.53 nM		
chimeric 201F4H6 (antibody, human IgG1, kappa, V domains shown, chimeric, human IgG1/kappa constant regions) VH: QVQLKESGPGLVAPSQSLSITCTVSGFSLTSYGVSWVRQPPGKGLECLGVIWAGGNTNYNSALMSRLSISKDKSKSQVFLKMNSLQTDDTAMYYCARVYYGNAMDYWGQGTSVTVSS VL: DIVMTQSPSSLTVTAGEKVTMSCKSSQSLLNSGNQKSYLTWYQQRPGQPPKLLIYWASTRESGVPDRFTGSGSGTDFTLTISSVQAEDLAVYFCQNVYFFPFTFGSGTKLETKR					1.36 nM		
humanized 410H6H3-VH1.2 + VL1.1 (antibody, human IgG1, kappa, V domains shown, humanized, human IgG1/kappa constant regions) VH: EVQLVESGGGLVQPGGSRRLSCAASGFTFSSSGMHWVRQAPGKGLEWVSYISSGSNTIYYADTLKGRFTISRDNAKNTLFLQMNSLRAEDTAVYYCARIYYGNSFVYWGQGTLVTVSS VL: DIVMTQSPDSLAVSLGERATMSCKSSQSLLNSGNQKNYLTWYQQKPGQPPKMLIYWASTRESGVPDRFSGSGSGTDFTLTISSLQAEDVAVYYCQNNYYYPLTFGQGTKLEIKR						0.555 µg/mL	64500
humanized 412B6E4-VH1 + VL1.1 (antibody, human IgG1, kappa, V domains shown, humanized, human IgG1/kappa constant regions) VH: EVQLVESGGGLVQPGGSLRLSCAASGFTFSSFGVHWVRQAPGKGLEWVSYISSGSSTIYYAHSVKGRFTISRDNAKNSLYLQMNSLRAEDTAVYYCARFYYGNSFAYWGQGTLVTVSS VL: DIVMTQSPDSLAVSLGERATMSCKSSQSLLNSGNQKNYLTWYQQKPGQPPKMLIYWASTRESGVPDRFSGSGSGTDFTLTISSLQAEDVAVYYCQNAYTYPLTFGQGTKLEIKR						0.373 µg/mL	65900
humanized 412B6E4-VH1.1 + VL1.1 (antibody, human IgG1, kappa, V domains shown, humanized, human IgG1/kappa constant regions) VH: EVQLVESGGGLVQPGGSLRLSCAASGFTFSSFGVHWVRQAPGKGLEWVAYISSGSSTIYYAHSVKGRFTISRDNAKNSLFLQMNSLRAEDTAVYYCARFYYGNSFAYWGQGTLVTVSS VL: DIVMTQSPDSLAVSLGERATMSCKSSQSLLNSGNQKNYLTWYQQKPGQPPKMLIYWASTRESGVPDRFSGSGSGTDFTLTISSLQAEDVAVYYCQNAYTYPLTFGQGTKLEIKR						0.571 µg/mL	71300
humanized 410H6H3-VH1.2 + VL1 (antibody, human IgG1, kappa, V domains shown, humanized, human IgG1/kappa constant regions) VH: EVQLVESGGGLVQPGGSRRLSCAASGFTFSSSGMHWVRQAPGKGLEWVSYISSGSNTIYYADTLKGRFTISRDNAKNTLFLQMNSLRAEDTAVYYCARIYYGNSFVYWGQGTLVTVSS VL: DIVMTQSPDSLAVSLGERATINCKSSQSLLNSGNQKNYLTWYQQKPGQPPKLLIYWASTRESGVPDRFSGSGSGTDFTLTISSLQAEDVAVYYCQNNYYYPLTFGQGTKLEIKR						0.372 µg/mL	73000
humanized 412B6E4-VH1.2 + VL1.1 (antibody, human IgG1, kappa, V domains shown, humanized, human IgG1/kappa constant regions) VH: EVQLVESGGGLVQPGGSRRLSCAASGFTFSSFGVHWVRQAPGKGLEWVSYISSGSSTIYYAHSVKGRFTISRDNAKNTLFLQMNSLRAEDTAVYYCARFYYGNSFAYWGQGTLVTVSS VL: DIVMTQSPDSLAVSLGERATMSCKSSQSLLNSGNQKNYLTWYQQKPGQPPKMLIYWASTRESGVPDRFSGSGSGTDFTLTISSLQAEDVAVYYCQNAYTYPLTFGQGTKLEIKR						0.512 µg/mL	70300
humanized 410H6H3-VH1 + VL1 (antibody, human IgG1, kappa, V domains shown, humanized, human IgG1/kappa constant regions) VH: EVQLVESGGGLVQPGGSLRLSCAASGFTFSSSGMHWVRQAPGKGLEWVSYISSGSNTIYYADTLKGRFTISRDNAKNSLYLQMNSLRAEDTAVYYCARIYYGNSFVYWGQGTLVTVSS VL: DIVMTQSPDSLAVSLGERATINCKSSQSLLNSGNQKNYLTWYQQKPGQPPKLLIYWASTRESGVPDRFSGSGSGTDFTLTISSLQAEDVAVYYCQNNYYYPLTFGQGTKLEIKR						0.33 µg/mL	72100
